The target in data set [1] is T1, secreted L-arabinose isomerase (L-AI) from L. sakei 23 K, purified from L. lactis MRS40 (Latilactobacillus sakei, UniProt Q38UH2).
T1 construct: gene araA; araA fused behind SPUsp45 signal peptide and LEISSTCDA propeptide (pSEC:LEISS:araA); secreted by Lactococcus lactis NZ9000 htrA clpP (MRS40), purified from supernatant; about 56 kDa monomer, homotetramer
T1 sequence (Q38UH2 2-474 limits assumed): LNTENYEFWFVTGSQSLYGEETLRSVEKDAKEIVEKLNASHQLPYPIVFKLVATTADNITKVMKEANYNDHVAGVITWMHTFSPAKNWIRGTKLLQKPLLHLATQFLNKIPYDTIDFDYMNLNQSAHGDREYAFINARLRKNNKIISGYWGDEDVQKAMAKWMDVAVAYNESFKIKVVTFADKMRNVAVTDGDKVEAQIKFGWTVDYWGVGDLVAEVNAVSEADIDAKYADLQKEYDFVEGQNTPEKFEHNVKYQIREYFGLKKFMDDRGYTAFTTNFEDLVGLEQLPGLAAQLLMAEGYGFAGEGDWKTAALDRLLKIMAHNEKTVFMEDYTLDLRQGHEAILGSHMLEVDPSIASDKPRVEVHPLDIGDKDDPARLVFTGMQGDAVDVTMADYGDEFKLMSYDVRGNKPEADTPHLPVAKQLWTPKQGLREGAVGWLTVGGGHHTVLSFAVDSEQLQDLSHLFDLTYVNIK
Briefly: bioconversion to D-tagatose, cysteine carbazole assay. The conditions noted are these: 10 g/l D-galactose, 0.3 mg/ml enzyme, pH 5.0, 6.0 and 7.0. The data set is classed as biochemical.

Data set [2] concerns the molecule itself. Briefly: SEC; gel filtration chromatography of the purified L-AI preparations, calibrated with protein markers of 669, 440, 232, 140 and 66 kDa; read together with SDS-PAGE (monomer about 56 kDa).

As for `OC[C@H]1OC(O)[C@H](O)[C@@H](O)[C@H]1O` (stereo partly drawn) [D-galactose], the “bioconversion to D-tagatose, cysteine carbazole assay” value in data set [1] is recorded as “The purified secreted L-AI displayed a high efficiency to isomerize the D-galactose into D-tagatose”.

B1: L-arabinose isomerase (L-AI) from Lactobacillus sakei 23 K, produced intracellularly in E. coli (enzyme, UniProt Q38UH2 1-474, looked up)
chain: MLNTENYEFWFVTGSQSLYGEETLRSVEKDAKEIVEKLNASHQLPYPIVFKLVATTADNITKVMKEANYNDHVAGVITWMHTFSPAKNWIRGTKLLQKPLLHLATQFLNKIPYDTIDFDYMNLNQSAHGDREYAFINARLRKNNKIISGYWGDEDVQKAMAKWMDVAVAYNESFKIKVVTFADKMRNVAVTDGDKVEAQIKFGWTVDYWGVGDLVAEVNAVSEADIDAKYADLQKEYDFVEGQNTPEKFEHNVKYQIREYFGLKKFMDDRGYTAFTTNFEDLVGLEQLPGLAAQLLMAEGYGFAGEGDWKTAALDRLLKIMAHNEKTVFMEDYTLDLRQGHEAILGSHMLEVDPSIASDKPRVEVHPLDIGDKDDPARLVFTGMQGDAVDVTMADYGDEFKLMSYDVRGNKPEADTPHLPVAKQLWTPKQGLREGAVGWLTVGGGHHTVLSFAVDSEQLQDLSHLFDLTYVNIK
notes: L-arabinose isomerase (araA gene product) of Lactobacillus sakei 23 K; apparent molecular weight of the monomer about 56 kDa on SDS-PAGE; also called intracellular form; purified L-AI from E. coli; source: E. coli BL21 (strain MRS36, plasmid pMR36), over-expressed and purified as previously reported [30]
On to B1, for which the “stoichiometry N” value in data set [2] is 4.

B2: secreted L-arabinose isomerase (L-AI) from Lactobacillus sakei 23 K, secreted by L. lactis MRS40 (pSEC:LEISS:araA) (enzyme)
chain: LEISSTCDAALNTENYEFWFVTGSQSLYGEETLRSVEKDAKEIVEKLNASHQLPYPIVFKLVATTADNITKVMKEANYNDHVAGVITWMHTFSPAKNWIRGTKLLQKPLLHLATQFLNKIPYDTIDFDYMNLNQSAHGDREYAFINARLRKNNKIISGYWGDEDVQKAMAKWMDVAVAYNESFKIKVVTFADKMRNVAVTDGDKVEAQIKFGWTVDYWGVGDLVAEVNAVSEADIDAKYADLQKEYDFVEGQNTPEKFEHNVKYQIREYFGLKKFMDDRGYTAFTTNFEDLVGLEQLPGLAAQLLMAEGYGFAGEGDWKTAALDRLLKIMAHNEKTVFMEDYTLDLRQGHEAILGSHMLEVDPSIASDKPRVEVHPLDIGDKDDPARLVFTGMQGDAVDVTMADYGDEFKLMSYDVRGNKPEADTPHLPVAKQLWTPKQGLREGAVGWLTVGGGHHTVLSFAVDSEQLQDLSHLFDLTYVNIK
With B2, in data set [2], the “stoichiometry N” value was found to be 4.

These data come from PMC4687139, “The secreted L-arabinose isomerase displays anti-hyperglycemic effects in mice” (Microbial Cell Factories, 2015).
